Positions count from the first letter of the chain named. Numbers in names are those of the source.
B1: IRL41 (receptor)
CRIg variant: RPILEVPESVTGPWKGDVNLPCTYDPLQGYTQVLVKWLVQRGSDPVTIFLRDSSGDHIQIAKYRGRLHVSHKVPGDVSLQLSTLEYDDRSHYTCEVTWQTPDGNQVVRDKITELRVQKHSSKLLKTKTEAPTTMTYPLKATSTVKQSWDWTTDMDGYLGETSAGPGKSLP
notes: also called RIL41; RIL 41
B2: IRL11 (receptor)
CRIg variant: RPILEVPYSVTGPWKGDVNLPCTYDPLQGYTQVLVKWLVQRGSDPVTIFLRDSSGDHIQIAKYRGRLHVSHKVPGDVSLQLSTLEMDDRSHYTCEVTWQTPDGNQVVRDKITELRVQKHSSKLLKTKTEAPTTMTYPLKATSTVKQSWDWTTDMDGYLGETSAGPGK
notes: also called Q60I-Q64R/E8Y
B3: IRL21 (receptor)
CRIg variant: B2 CRIg variant with Y8E, G42D
notes: also called Q60I-Q64R/G42D
B4: IRL23 (receptor)
CRIg variant: B2 CRIg variant with Y8E, P45F
notes: also called Q60I-Q64R/P45F
B5: RL59 (receptor)
CRIg variant: B2 CRIg variant with Y8E, I60Q, Q105R, K110N
notes: also called Q64R/Q105R/K110N
B6: L24 (receptor)
CRIg variant: B2 CRIg variant with Y8E, G42D, D44H, P45F, I60Q, R64Q
notes: also called G42D/D44H/P45F (printed G42D/D44/H/P45F)
B7: IRL24 (receptor)
CRIg variant: B1 CRIg variant with G42D, D44H, P45F, Y86M
notes: the mutation string is cut off at the cell border on the sheet; also called Q60I/Q64R/G42D/D44H/P45F
B8: IRL51 (receptor)
CRIg variant: B1 CRIg variant with Y86M, Q105R
notes: also called Q60I-Q64R/Q105R
B9: IRL55 or IRL56 (last digit not sure) (receptor)
CRIg variant: B1 CRIg variant with Y86M, K110N
notes: row between IRL52 and IRL59; also called Q60I-Q64R/K110N
B10: IRL52 (receptor)
CRIg variant: B1 CRIg variant with Y86M, Q105K
notes: also called Q60I-Q64R/Q105K
B11: YL24 (receptor)
CRIg variant: B1 CRIg variant with G42D, D44H, P45F, I60Q, R64Q
notes: also called M86Y/G42D/D44H/P45F
B12: YL59 (receptor)
CRIg variant: B1 CRIg variant with I60Q, R64Q, Q105R, K110N
notes: also called M86Y/Q105R/K110N

target: T1, C3b (human, UniProt P01024 23-667; P01024 749-1663); assay: competitive ELISA (competitive displacement of C3b); format of paragraph 183: variant in solution competes with coated huCRIg(L)-LFH for C3b
T1 construct: also called soluble C3b; human C3b
T1 sequence (P01024 23-667 limits assumed, chain 1 of 2): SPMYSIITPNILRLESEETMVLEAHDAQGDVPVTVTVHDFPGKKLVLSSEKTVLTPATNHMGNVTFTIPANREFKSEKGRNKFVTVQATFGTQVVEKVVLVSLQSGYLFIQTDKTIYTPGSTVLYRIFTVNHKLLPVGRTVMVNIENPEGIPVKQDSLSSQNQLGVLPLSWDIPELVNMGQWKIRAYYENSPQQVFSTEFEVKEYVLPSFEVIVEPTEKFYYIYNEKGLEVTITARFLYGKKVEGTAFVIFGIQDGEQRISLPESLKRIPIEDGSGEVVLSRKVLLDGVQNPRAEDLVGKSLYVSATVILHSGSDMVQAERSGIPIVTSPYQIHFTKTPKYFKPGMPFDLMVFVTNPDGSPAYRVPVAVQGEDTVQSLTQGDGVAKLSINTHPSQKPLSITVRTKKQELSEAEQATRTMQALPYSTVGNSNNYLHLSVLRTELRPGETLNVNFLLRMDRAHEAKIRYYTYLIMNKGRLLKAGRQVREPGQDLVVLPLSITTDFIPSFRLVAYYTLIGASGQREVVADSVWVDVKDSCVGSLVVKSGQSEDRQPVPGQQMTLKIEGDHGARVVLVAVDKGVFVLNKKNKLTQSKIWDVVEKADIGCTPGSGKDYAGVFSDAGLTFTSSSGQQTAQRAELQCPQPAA
T1 sequence (P01024 749-1663 limits assumed, chain 2 of 2): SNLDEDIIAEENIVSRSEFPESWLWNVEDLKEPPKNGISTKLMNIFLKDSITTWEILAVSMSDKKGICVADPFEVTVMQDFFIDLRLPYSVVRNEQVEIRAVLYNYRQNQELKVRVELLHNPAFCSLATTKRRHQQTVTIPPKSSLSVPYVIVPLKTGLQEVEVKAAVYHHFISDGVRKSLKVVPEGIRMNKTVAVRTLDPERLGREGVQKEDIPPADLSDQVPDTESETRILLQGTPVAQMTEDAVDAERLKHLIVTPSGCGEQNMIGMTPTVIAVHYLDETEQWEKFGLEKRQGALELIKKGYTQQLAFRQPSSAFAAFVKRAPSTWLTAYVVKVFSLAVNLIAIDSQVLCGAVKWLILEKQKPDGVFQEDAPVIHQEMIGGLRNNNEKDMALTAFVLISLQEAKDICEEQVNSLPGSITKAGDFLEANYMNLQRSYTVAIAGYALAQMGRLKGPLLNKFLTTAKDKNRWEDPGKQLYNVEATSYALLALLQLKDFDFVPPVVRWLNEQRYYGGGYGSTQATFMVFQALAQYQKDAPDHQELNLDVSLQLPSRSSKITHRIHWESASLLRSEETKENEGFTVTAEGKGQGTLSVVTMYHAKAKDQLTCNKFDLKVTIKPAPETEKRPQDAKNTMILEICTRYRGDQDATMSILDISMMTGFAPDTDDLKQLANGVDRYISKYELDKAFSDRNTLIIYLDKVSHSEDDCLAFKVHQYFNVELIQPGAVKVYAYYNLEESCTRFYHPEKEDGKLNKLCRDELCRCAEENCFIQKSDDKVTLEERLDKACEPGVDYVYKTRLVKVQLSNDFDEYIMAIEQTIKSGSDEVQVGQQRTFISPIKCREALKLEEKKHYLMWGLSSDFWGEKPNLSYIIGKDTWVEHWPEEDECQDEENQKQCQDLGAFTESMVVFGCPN
Procedure: huCRIg(L)-LFH was diluted to 2μg/mL in PBS, pH 7.4, and coated onto Maxisorp 384-well flat bottom plates (Nunc, Neptune, NJ) by incubating overnight (16-18 hr) at 4° C. (25 ul/well). The plates were washed 3 times in Wash Buffer (PBS, pH7.4, 0.05% Tween 20), and 50 ul/well of Block Buffer (PBS, pH 7.4, 0.5% BSA) was added to each well. The plates were allowed to block for 1-3hr; this and all subsequent incubations were performed on an orbital shaker at room temperature. During the blocking step, C3b (purified at Genentech) was diluted to 20 nM in Assay Buffer (PBS pH7.4, 0.5% BSA, 0.05% Tween-20), and the mutCRlg-huFc molecules were serially diluted in Assay Buffer, over a concentration range of 20,000—0.34 nM. The C3b and mutCRlg-huFc molecules were then mixed 1:1 and allowed to pre-incubate for 0.5-1 hr. The blocked plates were washed three times (as described above), and the C3b:mutCRlg-huFc complexes were added to the reaction plates (25 ul/well). After a 1-2 hr incubation, The ELISA plates were washed three times, (as described above) and plate-bound C3b was detected by the addition of an anti-human C3b antibody (clone 5F202, US Biological, Swampscott, Mass.; 600 ng/mL, 25 ul/well). The plates were incubated for 1-2 hr and washed as described above. […] Absorbance at 450 nm and 650 nm was determined using a SpectraMax 250 microtiter plate reader (Molecular Devices, Sunnyvale, Calif.).

IC50 (read off the curve) [nM] | Binder
~10 | B1

target: T1, C3b; assay: competitive ELISA, column 'Mu Ic50 (nM)'; format of paragraph 183: variant in solution competes with coated huCRIg(L)-LFH for C3b
Procedure: huCRIg(L)-LFH was diluted to 2μg/mL in PBS, pH 7.4, and coated onto Maxisorp 384-well flat bottom plates (Nunc, Neptune, NJ) by incubating overnight (16-18 hr) at 4° C. (25 ul/well). The plates were washed 3 times in Wash Buffer (PBS, pH7.4, 0.05% Tween 20), and 50 ul/well of Block Buffer (PBS, pH 7.4, 0.5% BSA) was added to each well. The plates were allowed to block for 1-3hr; this and all subsequent incubations were performed on an orbital shaker at room temperature. During the blocking step, C3b (purified at Genentech) was diluted to 20 nM in Assay Buffer (PBS pH7.4, 0.5% BSA, 0.05% Tween-20), and the mutCRlg-huFc molecules were serially diluted in Assay Buffer, over a concentration range of 20,000—0.34 nM. The C3b and mutCRlg-huFc molecules were then mixed 1:1 and allowed to pre-incubate for 0.5-1 hr. The blocked plates were washed three times (as described above), and the C3b:mutCRlg-huFc complexes were added to the reaction plates (25 ul/well). After a 1-2 hr incubation, The ELISA plates were washed three times, (as described above) and plate-bound C3b was detected by the addition of an anti-human C3b antibody (clone 5F202, US Biological, Swampscott, Mass.; 600 ng/mL, 25 ul/well). The plates were incubated for 1-2 hr and washed as described above. HRP-conjugated anti-murine Fc IgG (Jackson ImmunoResearch, West Grove, Pa.) diluted 1:2,000 was then added (25 ul/well), and the plates were incubated for 1-2 hr. After a final wash, 25 ul/well of TMB substrate (Kirkegaard & Perry Laboratories, Gaithersburg, Md.) was added to the ELISA plates. Color development was stopped after approximately 8min by adding 25 ul/well 1.0M phosphoric acid. Absorbance at 450 nm and 650 nm was determined using a SpectraMax 250 microtiter plate reader (Molecular Devices, Sunnyvale, Calif.).

IC50 [nM] | Binder
34 | B2
29 | B3
31 | B4
65 | B5
238 | B6
4 | B7
24 | B8
33 | B9
22 | B10
31 | B11
10 | B1
18 | B12

Reference: patent publication US20160008427A1 (Genentech, published 2016)
